# Source: US20070190075A1, “Hair growth stimulant composition” (Advangen, Inc. c/o National Institute of Advance Science …, priority 2003, published 2007)
# Tested on: C3H/He mouse
# Assay: Application to mouse after induction of growing stage, with hypodermic FGF-5 injection; shapes and sizes of hair follicles in skin slices
# Type: in vivo
# Conditions: FGF-5 5 μg hypodermically for 7 days; vs phosphate-buffered saline injected group
# Description: The hair on the back of a C3H/He mouse (purchased from Japan SLC, Inc.) of an age of 8 weeks whose hair cycle was in the resting stage was pulled out to induce the growing stage. For 7 days from the day following the induction, FGF-5 of 5 μg was hypodermically injected at the same place every time, and around the injected place, the plant extracts from rose fruit, etc. (50% ethanol solutions), “tea extract” and “green tea extract” described in Example 1 were each further applied in an amount of 0.02 ml/cm^2 once a day. To a mouse of a control group, 50% ethanol was applied once a day in the same manner. Further, as a control to the FGF-5 hypodermic injection group, a mouse group wherein a phosphate-buffered saline solution was injected, was prepared.
# On the day following the final application, the mouse was killed by dislocation of cervical vertebrae, and the skin at the applied place was taken. The skin thus taken was subjected to fixation with a 10% formalin aqueous solution, then treatment with an ethanol dehydration series, cleaning with xylene and embedding with paraffin. Using a microtome (available from Yamato), the skin was sliced in such a direction that the hair follicle from the top to the bottom could be completely visible, to prepare a skin slice of 4 μm. The resulting skin slice was extended on a silane-coated slide glass (available from Matsunami). […]
molecule,measurement,value
"FGF-5: Fibroblast growth factor 5, a cytokine that inhibits hair growth; injected hypodermically as challenge agent (protein, UniProt P12034 21-268, looked up) Fibroblast growth factor 5: HGEKRLAPKGQPGPAATDRNPRGSSSRQSSSSAMSSSSASSSPAASLGSQGSGLEQSSFQWSPSGRRTGSLYCRVGIGFHLQIYPDGKVNGSHEANMLSVLEIFAVSQGIVGIRGVFSNKFLAMSKKGKLHASAKFTDDCKFRERFQENSYNTYASAIHRTEKTGREWYVALNKRGKAKRGCSPRVKPQHISTHFLPRFKQSEQPELSFTVTVPEKKKPPSPIKPKIPLSAPRKNTNSVKYRLKFRFG",growth of hair follicles after hypodermic FGF-5 injection,growth of the hair follicles was inhibited more than that in the group wherein a phosphate-buffered saline solution had been injected
